Measurements published in the supplement of paper PMC7877785.
± gives the uncertainty stated by the source.

Test: self-splicing fitness, log relative to wild type (ln ratio); higher = more splicing; Tetrahymena group I intron in knt gene, E. coli kanamycin selection, DiMSum; sequences stand for … in CUCUCU…GGAGGGAAAAGUUAUCAGGCAUGCACCUGGUAGCUAGUCUUUAAACCAAUAGAUUGCAUCGGUUUAAAAGGCAAGACCGUCAAAUUGCGGGAAAGGGGUCAACAGCCGUUCAGUACCAAGUCUCAGGGGAAACUUUGAGAUGGCCUUGCAAAGGGUAUGGUAAUAAGCUGACGGACAUGGUCCUAACCACGCAGCCAAGUCCUAAGUCAACAGAUCUUCUGUUGAUAUGGAUGCAGUUCACAGACUAAAUGUCGGUCGGGGAAGAUGUAUUCUUCUCAUAAGAUAUAGUCGGACCUCUCCUUAAUGGGAGCUAGCGGAUGAAGUGAUGCAACACUGGAGCCGCUGGGAACUAAUUUGUAUGCGAAAGUAUAUUGAUUAGUUUUGGAGUACUCGUGGUCG
Procedure, shortened: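 Pooled colonies went to amplicon sequencing on an Illumina HiSeq 2500 after six replicate transformations. The plates were LB agar with 100 μg/mL carbenicillin, 50 μM IPTG and 0.2% rhamnose, with or without 25 μg/mL kanamycin, incubated overnight at 37°C or 30°C. The E. coli BL21(DE3) library had all eight P1ex-region intron nucleotides randomised, the intron placed in the knt kanamycin-resistance gene on pET-22b(+). DiMSum fitness is the error-weighted combination of replicate fold changes, kanamycin against none, normalised to wild type.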

Sequence | self-splicing fitness (ln) (30 °C) | self-splicing fitness (ln) (37 °C)
CCUUAGCAAUAUUACGUUAG | -4.07 ± 0.21 | -2.67 ± 0.26
CCUUAGCAAUAUUACGUUGU | -3.12 ± 0.17 | -3.27 ± 0.24
CCUUAGCAAUAUUACGUUUG | -3.99 ± 0.24 | -2.47 ± 0.18
CGAAAGCAAUAUUACGAACC | -0.666 ± 0.14 | -0.796 ± 0.16
CGAAAGCAAUAUUACGACUU | -1.64 ± 0.12 | -0.99 ± 0.14
CGAAAGCAAUAUUACGAGAG | -3.12 ± 0.17 | -2.58 ± 0.18
CGAAAGCAAUAUUACGAUCU | -0.599 ± 0.076 | 0.313 ± 0.11
CGAAAGCAAUAUUACGAUUC |  | -2.13 ± 0.26
CGAAAGCAAUAUUACGCAGG | -2.16 ± 0.091 | -1.4 ± 0.093
CGAAAGCAAUAUUACGCGGC | -2.81 ± 0.3 | -2.38 ± 0.31
CGAAAGCAAUAUUACGCGGG | -2.77 ± 0.18 | -1.88 ± 0.19
CGAAAGCAAUAUUACGCUCA | -0.156 ± 0.094 | 0.0149 ± 0.13
CGAAAGCAAUAUUACGGCGC | -1.14 ± 0.13 | -0.908 ± 0.15
CGAAAGCAAUAUUACGGGAU | -2.98 ± 0.21 | -2.87 ± 0.27
CGAAAGCAAUAUUACGGGGA | -3.09 ± 0.31 | -1.85 ± 0.2
CGAAAGCAAUAUUACGGUCG | -2.88 ± 0.15 | -2.19 ± 0.16
CGAAAGCAAUAUUACGGUGA | -1.52 ± 0.084 | -0.808 ± 0.11
CGAAAGCAAUAUUACGUAAC |  | -0.987 ± 0.5
CGAAAGCAAUAUUACGUAGC | -3.4 ± 0.29 | -2.39 ± 0.27
CGAAAGCAAUAUUACGUCAG | -1.1 ± 0.08 | 0.335 ± 0.11
CGAAAGCAAUAUUACGUGCA | -2.12 ± 0.12 | -1.13 ± 0.12
CGAAAGCAAUAUUACGUGCC | -3.18 ± 0.17 | -1.95 ± 0.17
CGAAAGCAAUAUUACGUGCG | -1.22 ± 0.076 | -0.524 ± 0.097
CGACAGCAAUAUUACGAACC | -3.27 ± 0.27 | -0.556 ± 0.2

Sequence | self-splicing fitness (ln) (30 °C) | self-splicing fitness (ln) (37 °C)
CGACAGCAAUAUUACGAAUC | -4.11 ± 0.46 | -2.71 ± 0.34
CGACAGCAAUAUUACGACAU | -2.444 ± 0.014 | -1.33 ± 0.033
CGACAGCAAUAUUACGACCC | -1.31 ± 0.19 | 0.117 ± 0.23
CGACAGCAAUAUUACGACCU | -1.56 ± 0.099 | 0.317 ± 0.11
CGACAGCAAUAUUACGACUA | -2.15 ± 0.13 | 0.027 ± 0.092
CGACAGCAAUAUUACGACUC | -2.83 ± 0.18 | -1.18 ± 0.15
CGACAGCAAUAUUACGAGAA |  | -2.41 ± 0.23
CGACAGCAAUAUUACGAGCU | -2.86 ± 0.15 | -2.17 ± 0.17
CGACAGCAAUAUUACGAGGA | -3.91 ± 0.2 | -2.53 ± 0.18
CGACAGCAAUAUUACGAGGG | -3.67 ± 0.13 | -2.99 ± 0.15
CGACAGCAAUAUUACGAGUU | -2.98 ± 0.1 | -3.25 ± 0.15
CGACAGCAAUAUUACGAUCU | -0.335 ± 0.1 | 0.552 ± 0.094
CGACAGCAAUAUUACGCCAG | -1.73 ± 0.11 | -0.84 ± 0.13
CGACAGCAAUAUUACGCGAG | -1.5 ± 0.16 | -2.32 ± 0.21
CGACAGCAAUAUUACGCGGG | -2.71 ± 0.12 | -2.39 ± 0.15
CGACAGCAAUAUUACGCGGU | -4.5 ± 0.15 | -2.85 ± 0.14
CGACAGCAAUAUUACGCUCU | -1.69 ± 0.11 | -0.145 ± 0.11
CGACAGCAAUAUUACGGAGA | -2.18 ± 0.15 | -3.29 ± 0.28
CGACAGCAAUAUUACGGAGC | -2.83 ± 0.19 | -3.04 ± 0.25
CGACAGCAAUAUUACGGGAC | -4.58 ± 0.26 | -1.71 ± 0.14
CGACAGCAAUAUUACGGGGU | -4.03 ± 0.17 | -3.01 ± 0.17
CGACAGCAAUAUUACGGGUC | -4.52 ± 0.32 | -3.14 ± 0.29
CGACAGCAAUAUUACGUACG | -3.63 ± 0.21 | -2.92 ± 0.38
CGACAGCAAUAUUACGUCAU | -3.41 ± 0.24 | -1.54 ± 0.14
